The source of these data is PMC3706368.

The assay deals with V5-tagged cdN protein (human) (UniProt Q8TCD5).
Sequence of UniProt Q8TCD5 (Q8TCD5 whole entry): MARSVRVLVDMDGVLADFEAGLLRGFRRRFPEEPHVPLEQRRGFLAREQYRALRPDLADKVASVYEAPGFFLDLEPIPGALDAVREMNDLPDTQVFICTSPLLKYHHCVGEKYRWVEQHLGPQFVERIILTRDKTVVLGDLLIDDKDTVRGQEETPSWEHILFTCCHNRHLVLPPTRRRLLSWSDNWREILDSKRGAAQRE

“myc-tagged full-length NS3/4A protein (natural protein)” had a 5'(3')-deoxyribonucleotidase activity (dephosphorylation of dUMP) in lysates of HuH7 cells with stable HCV NS3/4A expression, compared with cells with stable EGFP expression of 70%.
